The supplement of paper PMC12042874
± gives the uncertainty stated by the source.

Test: amyloid nucleation score (Sup35N fusion, yeast selection) (log enrichment); library NNK3; higher = more nucleation; inactive = no reads after selection
Method in brief: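 Random libraries were run with three technical output replicates. In each, psi-negative yeast expressing Sup35N fused to peptides of 20 random codons were induced 24 hours with 100 μM copper sulfate and grown 7 days at 30°C on medium lacking adenine and uracil, and input and output plasmid inserts were Illumina-sequenced. The nucleation score is the DiMSum log enrichment of output over input reads, centred on the mode score of non-aggregating sequences, and sequences under 100 input reads were excluded.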

Substance | amyloid nucleation score
HWGTMNGSPSFFPITVRCGG | inactive
HWIHGRR | inactive
HWYGTMLKLFNVLKPMGPKI | inactive
HYINYINLQMVYFDVGQMYC | 2.96 ± 0.062
HYKKYITPVQRVGCADPSHC | inactive
HYLHRG | inactive
HYMLGSLSPVWLFFL | inactive
HYNVFGGRLSSSRNMYKGVY | inactive
HYRIESTVLE | -0.772 ± 0.8
HYSAREWLLLCIMVCDVVVW | inactive
HYTHSNLQAPDPH | inactive
IAFGVLVDDSDCCIDTYEEE | inactive
IAGCMGNCGLCRAMVICWMN | -0.409 ± 0.7
IALGNVRISRYRVLWAYLSS | inactive
IALTTRVN | inactive
IANTHFIIM | 1.14 ± 0.13
IATCTRFIDYVYRDVSSGPC | 0.725 ± 0.11
IAVERMIGLLPGSYF | inactive
IAVPRWKDSDTQKVV | inactive
ICELPNIYDVS | inactive
ICEVNCGLVIWWVRRFEGAS | inactive
ICRHLSIGG | inactive
ICRLRPLSWMWFAAYSCLFN | inactive

Substance | amyloid nucleation score
ICYPLFFCNAEWRFEEPCVL | 2.57 ± 0.075
ICYTYNGPRSSVGVVLLGQ | inactive
IDIESL | inactive
IDISIL | inactive
IDRVMCNHDSIRQQLSLLSV | inactive
IDVMEYMLASYRVSWYRGLA | inactive
IDVYLGLYMRRVSVLETHCS | 2.02 ± 0.087
IDVYRFRKGA | inactive
IEACSVSM | 0.059 ± 0.98
IENQSRCLLTNVATVN | inactive
IESSYFNNNRFGRHVVKQVG | inactive
IETGSKYVAVRARLQSVMDG | inactive
IEYWFASRTFWSCRNMVRH | -0.342 ± 0.98
IFCGPCLSSYRPKWTGMTSY | 2.12 ± 0.06
IFCKPWGSSFRIEPVAGTWI | inactive
IFFSIVSWKDAGCSEAINCQ | inactive
IFFVTVYQTNHHKSTLRCTN | 2.33 ± 0.087
IFGSAFFRYYLCITQFCEYS | inactive
IFLAGDMC | inactive
IFLKHIPRHSSSKTMTANCP | inactive
IFLRYSLSSRYHRCLLLKES | inactive
IFPNLACSFRFCTRPYRSSM | 0.571 ± 0.25
IFSNLGVVNLCRACFKYSNI | 2.92 ± 0.059

Substance | amyloid nucleation score
IFVLDASMVMSFYVSVDASS | 0.989 ± 0.093
IFYVCRIIWCTERQVGKLGL | inactive
IGEMNTPMPAMKFVMRWLDH | 0.845 ± 0.13
IGFNA | inactive
IGIIFSKVWSPPDDMHT | 1.28 ± 0.095
IGLSAKIRFWVMWRMRHTR | inactive
IGPVVGGYRYMCPASDHK | inactive
IHCLLLDRVTNLFLTMQAG | inactive
IHCSSWFELS | inactive
IHCYCS | inactive
IHGKGGLWSHSISIHWNN | inactive
IHLIVWGPSSTLVMVFMEVM | inactive
IHVDLYN | inactive
IHYGEYNFLGKSRWNHLFFF | inactive
IIFFYGGS | 1.9 ± 0.08
IIGWDDFLLVYNIKLYHNS | inactive
IILLSGDSSSRIQEVKVGKK | inactive
IINFIVCMMSVQNMCCALFG | 1.39 ± 0.1
IIPVTSRDYSRKPYPTLERV | inactive
IISQIRCFNLPEVPSSTMCL | inactive
IITVSGPLVVLVLSGKGSNN | 2.42 ± 0.062
IIVRSTDGLSCRSDSIYECD | inactive
IKFDGIIADFSSITVVLECT | 0.708 ± 0.25

Substance | amyloid nucleation score
IKFVPRA | inactive
IKGFRGLLFEVSYHSPELGW | inactive
IKGLAPRFAVGLDNLMSESM | inactive
IKIMHLSQPMDSMSLLHHG | inactive
IKLFLIHTTPSFPNTREHDL | inactive
IKPCGCSVLDIRT | inactive
IKQGYRAHLWWIVVNRLMFD | inactive
IKSKNAVCCHFATTMQDSLT | inactive
ILASKALQQLLQGLTLV | -0.375 ± 0.98
ILCQIDAKDPKPLMTRGLRL | inactive
ILEYAVVNHQVNLVIVSIGH | 1.65 ± 0.068
ILFGGRNGKWLVEPGLSRVL | 0.84 ± 0.23
ILGAILLSMFDSLYLGGEWR | inactive
ILKVVWYNSPEG | 0.898 ± 0.16
ILMQNSETWSLYPNTA | inactive
ILNISCFYEWYDHTLNSQSV | -0.203 ± 0.42
ILNTCYISHFPFQL | 2.33 ± 0.087
ILNYLRENCQKVTGRGA | -0.679 ± 0.96
ILQTLQDVRVRGMDISTASL | inactive
ILQVFKIMFKRRGLSFHLGI | inactive
ILQYRYKGWNRKGYHQQPVI | inactive
ILRFFVCLSHKNVDFICSAR | inactive
ILRSLVSLWYGCDCW | 0.661 ± 0.16

Substance | amyloid nucleation score
ILSDMTGDHNSINFDMYSGI | inactive
ILTCFFSQEMIWHFLDTYDY | 0.522 ± 0.24
ILTGILDFFFGTSNSRYRNG | inactive
ILTHIVWLFVRLSCMNWNWL | inactive
ILTISNTAKKSDW | inactive
ILTLTSRPLLLNLKKPFWVF | inactive
ILVCCISVETTHDNGPEVVG | 2.22 ± 0.061
ILYNFEDVLWAGSLRIGLNL | inactive
ILYRCDCAFFYPLGLLFSRC | inactive
IMCIYEGAVSMYMRVWSNMS | inactive
IMEIMVNTWGNVTVRNSWRL | 1.23 ± 0.14
IMKRFVMFLCFSISIWMFVV | inactive
IMLKGS | inactive
IMSVRIGSLGVMSHWSLYSY | inactive
IMTLFTILVTLMTMCLDQFV | inactive
IMVAMGW | inactive
IMYPIRSSGLEPLNMCGYQA | inactive
INNAPFNLPLANK | inactive
INSDSSQFSYSSLGKVIGMY | inactive
INSVSRGCINHFASVEGPCI | inactive
INVTLCCTMYD | 3.02 ± 0.053
INWLWFLMHIIQI | inactive
IPCLQVYFTSTPNPSWSHGH | inactive

Substance | amyloid nucleation score
IPFFIGCHNKCRVYLWVAVG | inactive
IPGALGNKAICTRASSRRVG | inactive
IPGAVISEYYKSYRSSTIPP | inactive
IPNMDAFLERRPREYNWPVA | inactive
IPSNTKSFSH | inactive
IPVAIMLS | inactive
IPVFMLLMYRVSMMDSSSKS | inactive
IPYRVFRRTLNLVENMMCRM | inactive
IQCIWDIVGDCWCNSSMGKE | inactive
IQDHYSDPAN | inactive
IQDLEASRFGSIVIALDNCS | inactive
IQGLCCRHAEFKNY | inactive
IREFSNI | inactive
IRFSCSSSG | inactive
IRLFAVTAYSIVTYVRFMIG | inactive
IRNALIYIVISLKFGRRGCY | 0.107 ± 0.28
IRNFPRDLEFLPFWHSILSL | inactive
IRPWQLCMSKLSHIRRATPY | inactive
IRRQYIYHSNEYRMMHYSES | 0.179 ± 0.85
IRSKCR | inactive
IRVRLINSGAL | inactive
ISCGGLNQ | inactive
ISCTIVLRIVNYNAILVHTY | inactive

Substance | amyloid nucleation score
ISDTYSWCRYLVIGNYAQLG | 0.463 ± 0.23
ISFNFHSSSTGRA | 1.38 ± 0.11
ISFSWHF | 0.789 ± 0.17
ISGFKIVSYMNKIVVSTMGL | inactive
ISHCMVLRNA | 2.49 ± 0.086
ISHVNRSNLVFLYFIVVL | 0.669 ± 0.15
ISIETGWRNHFTSVPACMLH | inactive
ISMSCNYSW | inactive
ISPYIIVPY | inactive
ISSNTGFCPAVMLGIPFFRI | inactive
ISSRGSMTRL | inactive
ISSRSGHVVMSFVCATLRNL | inactive
ISTLSVSLS | -0.258 ± 0.36
ISWNLRGVVLLTYTICSWCI | inactive
ISYVYFLGPCV | 2.13 ± 0.08
ITCLNMTWSTAGQWLCVSFT | 1.05 ± 0.17
ITFLDWKLTTTG | inactive
ITFVYSS | inactive
ITGHRNVLIEHMVTTP | inactive
ITISIYRIGRRFFDEYFNSF | inactive
ITNCFWHWIRAISYANAANS | inactive
ITNCLTSACRTSLFMKTQII | inactive
